# Source: patent CN116143933A (BEIJING ZHIREN MEIBO BIOTECHNOLOGY CO LTD, dated 2023)
# How the values were obtained:
# [1] = target: T1, 食蟹猴CD38胞外区-His (mfCD38-His) (cynomolgus monkey (Macaca fascicularis), UniProt Q5VAN0 44-301); test: ELISA, mfCD38-His coated at 1.5 μg/ml, HRP mouse anti-human IgG
# T1 construct: Recombinant, expressed in HEK293 cells; not shown: His tag at the C-terminus
# 人CD38胞外区-His (hCD38-His) = target: T2, 人CD38胞外区-His (hCD38-His) (human (homo sapiens), UniProt P28907 43-300); test: SPR (Biacore X100), antibody captured by anti-human Fc, human CD38-His as analyte, 25°C
# T2 construct: Recombinant, expressed in HEK293 cells; also called 人CD38-His; not shown: His tag at the C-terminus
binding result [1],Kd (人CD38胞外区-His (hCD38-His)) [pM],Binder
binds,21.6,"S5A10h1cross+S5B8h2 (bispecific antibody, human IgG1, kappa, Knob-into-hole plus CrossMab format, four chains) heavy 1: QVQLVQSGAEVKKPGASVKVSCKASGYAFTNSWMHWVRQAPGQGLEWMGEIHPQSGRTNYNEKFKGRVTMTRDTSTSTVYMELSSLRSEDTAVYYCARDLLQFGNQYYYAMDYWGQGTLVTVSSASTKGPSVFPLAPSSKSTSEGTAALGCLVKDYFPEPVTVSWNSGALTSGVHTFPAVLQSSGLYSLSSVVTVPSSSLGTQTYICNVDHKPSNTKVDKTVEPKSCDKTHTCPPCPAPELLGGPSVFLFPPKPKDTLMISRTPEVTCVVVDVSQEDPEVQFNWYVDGVEVHNAKTKPREEQYNSTYRVVSVLTVLHQDWLNGKEYKCKVSNKALPAPIEKTISKAKGQPREPQVCTLPPSQEEMTKNQVSLSCAVKGFYPSDIAVEWESNGQPENNYKTTPPVLDSDGSFFLVSKLTVDKSRWQEGNVFSCSVMHEALHNHYTQKSLSLSPGK light 1: DIVMTQTPLSLPVTPGEPASISCRSSQSLVHSNGNTYLHWYLQKPGQSPQLLIYKVSNRFSGVPDRFSGSGSGTDFTLKISRVEAEDVGVYYCSQSTHVPLTFGQGTKLEIKRTVAAPSVFIFPPSDEQLKSGTASVVCLLNNFYPREAKVQWKVDNALQSGNSQESVTEQDSKDSTYSLSSTLTLSKADYEKHKVYACEVTHQGLSSPVTKSFNRGEC heavy 2: not shown light 2: DIQMTQSPSSLSASVGDRVTITCRASENIYSYLAWYQQKPGKAPKLLIYNAKTLAEGVPSRFSGSGSGTDFTLTISSLQPEDFATYYCQHHYGTPYTFGQGTKLEIKSSASTKGPSVFPLAPSSKSTSGGTAALGCLVKDYFPEPVTVSWNSGALTSGVHTFPAVLQSSGLYSLSSVVTVPSSSLGTQTYICNVNHKPSNTKVDKRVEPKSC"
binds,151,"S5A10h1Fab+S5B8h2ScFv (bispecific antibody, human IgG1, kappa, Fab-FcK/scFv-FcH knob-into-hole format, three chains) DIVMTQTPLSLPVTPGEPASISCRSSQSLVHSNGNTYLHWYLQKPGQSPQLLIYKVSNRFSGVPDRFSGSGSGTDFTLKISRVEAEDVGVYYCSQSTHVPLTFGQGTKLEIKGGGGSGGGGSGGGGSQVQLVQSGAEVKKPGASVKVSCKASGYAFTNSWMHWVRQAPGQGLEWMGEIHPQSGRTNYNEKFKGRVTMTRDTSTSTVYMELSSLRSEDTAVYYCARDLLQFGNQYYYAMDYWGQGTLVTVSSEPKSSDKTHTCPPCPAPELLGGPSVFLFPPKPKDTLMISRTPEVTCVVVDVSQEDPEVQFNWYVDGVEVHNAKTKPREEQYNSTYRVVSVLTVLHQDWLNGKEYKCKVSNKALPAPIEKTISKAKGQPREPQVCTLPPSQEEMTKNQVSLSCAVKGFYPSDIAVEWESNGQPENNYKTTPPVLDSDGSFFLVSKLTVDKSRWQEGNVFSCSVMHEALHNHYTQKSLSLSPGK heavy: not shown light: DIQMTQSPSSLSASVGDRVTITCRASENIYSYLAWYQQKPGKAPKLLIYNAKTLAEGVPSRFSGSGSGTDFTLTISSLQPEDFATYYCQHHYGTPYTFGQGTKLEIKRTVAAPSVFIFPPSDEQLKSGTASVVCLLNNFYPREAKVQWKVDNALQSGNSQESVTEQDSKDSTYSLSSTLTLSKADYEKHKVYACEVTHQGLSSPVTKSFNRGEC"
binds,21.3,"S5B8h2 (antibody, IgG1, V domains shown, Made as a whole antibody of the IgG1 subtype; only variable domains are tied to it; also called 单克隆抗体S5B8h2) VH: QVQLVQSGAEVKKPGASVKVSCKASGYAFTNSWMHWVRQAPGQGLEWMGEIHPQSGRTNYNEKFKGRVTMTRDTSTSTVYMELSSLRSEDTAVYYCARDLLQFGNQYYYAMDYWGQGTLVTVSS VL: DIVMTQTPLSLPVTPGEPASISCRSSQSLVHSNGNTYLHWYLQKPGQSPQLLIYKVSNRFSGVPDRFSGSGSGTDFTLKISRVEAEDVGVYYCSQSTHVPLTFGQGTKLEIK"
–,1340,"S5A10h1 (antibody, V domains shown, Made as a whole antibody of the IgG1 subtype; only variable domains are tied to it; also called 单克隆抗体S5A10h1) VH: QVQLVQSGAEVKKPGSSVKVSCKASDYPFISYTIHWVRQAPGQGLEWMGYINPSNGYTNYNQKFKDRVTITADKSTSTAYMELSSLRSEDTAVYYCARKYGNFYAMDYWGQGTLVTVSS VL: DIQMTQSPSSLSASVGDRVTITCRASENIYSYLAWYQQKPGKAPKLLIYNAKTLAEGVPSRFSGSGSGTDFTLTISSLQPEDFATYYCQHHYGTPYTFGQGTKLEIK"
